Values quoted from earlier work as cited in article PMC9256959.

Target: AMH mature ligand mature domain (Homo sapiens) (UniProt P03971)

- Kd: 0.4 pM
Substance: AMH prodomain prodomain (from UniProt P03971)
